Starred links: 1 amine or outer side, 2 acyl side, 3 side chain; linkers in the order of their positions; H or OH if unused. Non-standard residues stand in square brackets, D forms with d. *: point of attachment. Oic = O=C(O)[C@@H]1C[C@@H]2CCCC[C@@H]2N1; Phe(4-Cl) = N[C@@H](Cc1ccc(Cl)cc1)C(=O)O; γGlu = O=C(O)[C@H](CCC(=O)[*:2])N[*:1]; NMeR = CN[C@@H](CCCNC(=N)N)C(=O)O; Tridecanoyl = CCCCCCCCCCCCC(=O)*; hArg = N=C(N)NCCCC[C@H](N)C(=O)O; Cha = N[C@@H](CC1CCCCC1)C(=O)O; Tle = CC(C)(C)[C@H](N)C(=O)O; Nle = CCCC[C@H](N)C(=O)O; Deg = CCC(N)(CC)C(=O)O; AEEA = NCCOCCOCC(=O)O; Aib = CC(C)(N)C(=O)O; BLeu = β-leucine
T1: human APJ receptor (human, UniProt P35414 1-380)
T1 sequence (looked up): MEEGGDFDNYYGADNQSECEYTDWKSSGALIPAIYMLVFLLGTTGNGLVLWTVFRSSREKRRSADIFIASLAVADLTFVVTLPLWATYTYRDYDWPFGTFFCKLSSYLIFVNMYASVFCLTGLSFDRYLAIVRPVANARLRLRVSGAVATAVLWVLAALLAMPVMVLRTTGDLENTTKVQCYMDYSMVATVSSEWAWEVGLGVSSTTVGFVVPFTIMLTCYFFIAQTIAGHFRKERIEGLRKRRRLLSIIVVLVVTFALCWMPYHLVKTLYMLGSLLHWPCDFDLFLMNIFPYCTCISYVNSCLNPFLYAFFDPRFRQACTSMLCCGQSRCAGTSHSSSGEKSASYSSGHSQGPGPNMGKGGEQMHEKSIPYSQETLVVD

T2: rat APJ receptor (rat, UniProt Q9JHG3 1-377)
T2 sequence (looked up): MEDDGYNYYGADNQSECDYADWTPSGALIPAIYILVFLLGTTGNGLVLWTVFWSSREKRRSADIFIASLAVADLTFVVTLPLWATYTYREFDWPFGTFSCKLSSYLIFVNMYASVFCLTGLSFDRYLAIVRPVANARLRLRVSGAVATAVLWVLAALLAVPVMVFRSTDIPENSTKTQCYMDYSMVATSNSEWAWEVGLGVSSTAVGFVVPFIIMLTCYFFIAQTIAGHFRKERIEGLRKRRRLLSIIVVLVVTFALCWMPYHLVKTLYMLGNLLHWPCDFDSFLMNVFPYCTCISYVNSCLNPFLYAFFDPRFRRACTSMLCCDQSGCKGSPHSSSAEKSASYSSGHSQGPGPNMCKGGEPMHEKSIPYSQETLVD

B1: apelin polypeptide SEQ ID NO: 272 (peptide)
peptide: Tridecanoyl-[γGlu][AEEA][AEEA][dQ][hArg]P[dR][Cha]SHKG[Oic][Tle]P[Phe(4-Cl)]-OH
SMILES: CCCCCCCCCCCCC(=O)N[C@@H](CCC(=O)NCCOCCOCC(=O)NCCOCCOCC(=O)N[C@H](CCC(N)=O)C(=O)N[C@@H](CCCCNC(=N)N)C(=O)N1CCC[C@H]1C(=O)N[C@H](CCCNC(=N)N)C(=O)N[C@@H](CC1CCCCC1)C(=O)N[C@@H](CO)C(=O)N[C@@H](Cc1c[nH]cn1)C(=O)N[C@@H](CCCCN)C(=O)NCC(=O)N1[C@H](C(=O)N[C@H](C(=O)N2CCC[C@H]2C(=O)N[C@@H](Cc2ccc(Cl)cc2)C(=O)O)C(C)(C)C)C[C@@H]2CCCC[C@@H]21)C(=O)O
B2: apelin polypeptide SEQ ID NO: 273 (peptide)
peptide: Tridecanoyl-[γGlu][AEEA][AEEA][dQ][hArg]P[dR][Cha]S[Aib]KG[Oic][Nle]P[Phe(4-Cl)]-OH
SMILES: CCCCCCCCCCCCC(=O)N[C@@H](CCC(=O)NCCOCCOCC(=O)NCCOCCOCC(=O)N[C@H](CCC(N)=O)C(=O)N[C@@H](CCCCNC(=N)N)C(=O)N1CCC[C@H]1C(=O)N[C@H](CCCNC(=N)N)C(=O)N[C@@H](CC1CCCCC1)C(=O)N[C@@H](CO)C(=O)NC(C)(C)C(=O)N[C@@H](CCCCN)C(=O)NCC(=O)N1[C@H](C(=O)N[C@@H](CCCC)C(=O)N2CCC[C@H]2C(=O)N[C@@H](Cc2ccc(Cl)cc2)C(=O)O)C[C@@H]2CCCC[C@@H]21)C(=O)O
B3: apelin polypeptide SEQ ID NO: 275 (peptide)
peptide: Tridecanoyl-[γGlu][AEEA][AEEA][dQ][hArg]P[NMeR][BLeu]SHKG[Oic][Nle]P[Phe(4-Cl)]-OH
B4: apelin polypeptide SEQ ID NO: 271 (peptide)
peptide: Tridecanoyl-[γGlu][AEEA][AEEA][dQ][hArg]P[dR][Cha]SHKG[Oic][Nle][Deg][Phe(4-Cl)]-OH
SMILES: CCCCCCCCCCCCC(=O)N[C@@H](CCC(=O)NCCOCCOCC(=O)NCCOCCOCC(=O)N[C@H](CCC(N)=O)C(=O)N[C@@H](CCCCNC(=N)N)C(=O)N1CCC[C@H]1C(=O)N[C@H](CCCNC(=N)N)C(=O)N[C@@H](CC1CCCCC1)C(=O)N[C@@H](CO)C(=O)N[C@@H](Cc1c[nH]cn1)C(=O)N[C@@H](CCCCN)C(=O)NCC(=O)N1[C@H](C(=O)N[C@@H](CCCC)C(=O)NC(CC)(CC)C(=O)N[C@@H](Cc2ccc(Cl)cc2)C(=O)O)C[C@@H]2CCCC[C@@H]21)C(=O)O
B5: apelin polypeptide SEQ ID NO: 274 (peptide)
peptide: Tridecanoyl-[γGlu][AEEA][AEEA][dQ][hArg]P[dR][BLeu]SHKG[Oic][Nle]P[Phe(4-Cl)]-OH
B6: apelin polypeptide SEQ ID NO: 277 (peptide)
peptide: Tridecanoyl-[γGlu][AEEA][AEEA][dL][hArg]P[dR][Cha]SHKG[Oic][Nle]P[Phe(4-Cl)]-OH
SMILES: CCCCCCCCCCCCC(=O)N[C@@H](CCC(=O)NCCOCCOCC(=O)NCCOCCOCC(=O)N[C@H](CC(C)C)C(=O)N[C@@H](CCCCNC(=N)N)C(=O)N1CCC[C@H]1C(=O)N[C@H](CCCNC(=N)N)C(=O)N[C@@H](CC1CCCCC1)C(=O)N[C@@H](CO)C(=O)N[C@@H](Cc1c[nH]cn1)C(=O)N[C@@H](CCCCN)C(=O)NCC(=O)N1[C@H](C(=O)N[C@@H](CCCC)C(=O)N2CCC[C@H]2C(=O)N[C@@H](Cc2ccc(Cl)cc2)C(=O)O)C[C@@H]2CCCC[C@@H]21)C(=O)O

target: T1, human APJ receptor; assay: cell-based or functional assay

Row | EC50 Human APJ Receptor | Binder
1 | 16.8 nM | B1
2 | 1.67 nM | B2
3 | 3.43 nM | B3
4 | 11.8 nM | B4
5 | 8.04 nM | B5
6 | 16.1 nM | B6

target: T2, rat APJ receptor; assay: cell-based or functional assay

Row | EC50 Rat APJ Receptor | Binder
7 | 11.5 nM | B1
8 | 5.09 nM | B2
9 | 19.3 nM | B3
10 | 7.88 nM | B4
11 | 46.2 nM | B5
12 | 20.9 nM | B6
